We go through one molecule from publication PMC12726990, “Sialylated Clusterin Binds CD33 to Regulate Microglial Functions in Alzheimer's Disease” (Alzheimer's & Dementia, 2025).

In the assay the target is T1, Sialylated clusterin (CLU) (UniProt P10909 23-449, sialylated).
T1 construct: Clusterin (CLU), soluble sialylated protein
Kind of assay: BLI + MST; quantitative binding assay; which of the two methods gave the value, and who was immobilised or labelled, is not told. To be noted: both partners purified.

T1 sequence (P10909 23-449): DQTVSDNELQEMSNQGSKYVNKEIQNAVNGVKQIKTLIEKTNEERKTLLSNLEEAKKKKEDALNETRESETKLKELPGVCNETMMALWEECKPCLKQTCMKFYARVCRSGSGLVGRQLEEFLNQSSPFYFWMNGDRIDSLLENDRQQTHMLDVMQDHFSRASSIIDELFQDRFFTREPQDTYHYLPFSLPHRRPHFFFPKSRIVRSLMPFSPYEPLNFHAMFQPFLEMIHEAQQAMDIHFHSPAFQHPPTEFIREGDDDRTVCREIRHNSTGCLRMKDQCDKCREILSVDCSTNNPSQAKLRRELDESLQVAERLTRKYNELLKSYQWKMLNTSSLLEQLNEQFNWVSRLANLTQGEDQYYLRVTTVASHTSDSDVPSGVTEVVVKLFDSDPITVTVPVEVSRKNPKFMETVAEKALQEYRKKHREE

B1: sialic-acid binding immunoglobulin-like lectin 3 receptor (Siglec-3 / CD33) (receptor)
chain: DPNFWLQVQESVTVQEGLCVLVPCTFFHPIPYYDKNSPVHGYWFREGAIISRDSPVATNKLDQEVQEETQGRFRLLGDPSRNNCSLSIVDARRRDNGSYFFRMERGSTKYSYKSPQLSVHVTDLTHRPKILIPGTLEPGHSKNLTCSVSWACEQGTPPIFSWLSAAPTSLGPRTTHSSVLIITPRPQDHGTNLTCQVKFAGAGVTTERTIQLNVTYVPQNPTTGIFPGDGSGKQETRAGVVH
In the case of B1, the Kd is 28.9 ± 10.3 nM.

Broadly, the Kd is a measure of binding affinity in units of concentration.
